Substrate: CCCCCCCCCCCCCCCC(=O)OCC
Experiment: release of fatty acid, substrate saturation, nonlinear regression
Assay type: biochemical, Saccharomyces cerevisiae
Settings: CHAPS-emulsified substrate, Bistris propane, pH 7, 1 mM EDTA, 37 °C, 30 min

B1: His6-tagged Yju3p (Saccharomyces cerevisiae S288C) (protein)
chain: MAPYPYKVQTTVPELQYENFDGAKFGYMFWPVQNGTNEVRGRVLLIHGFGEYTKIQFRLMDHLSLNGYESFTFDQRGAGVTSPGRSKGVTDEYHVFNDLEHFVEKNLSECKAKGIPLFMWGHSMGGGICLNYACQGKHKNEISGYIGSGPLIILHPHTMYNKPTQIIAPLLAKFLPRVRIDTGLDLKGITSDKAYRAFLGSDPMSVPLYGSFRQIHDFMQRGAKLYKNENNYIQKNFAKDKPVIIMHGQDDTINDPKGSEKFIQDCPSADKELKLYPGARHSIFSLETDKVFNTVFNDMKQWLDKHTTTEAKP
notes: expression construct described previously (YJU3 for the GFP fusions was cloned from BY4742 genomic DNA)
  Km: 780 µM
